According to publication PMC6508825, “Rice plants have three homologs of glutathione synthetase genes, one of which, OsGS2, codes for hydroxymethyl‐glutathione synthetase” (Plant Direct, 2019):

Tests used:
Settings in all cases: 1 mmol/L gamma-glutamylcysteine, 2 mmol/L ATP, 20 mmol/L MgCl2, 50 mmol/L KCl, 1 mmol/L DTT, Tris-HCl pH 8.0, 30 °C, apparent, 0.2-10 mmol/L amino acid
[1] = substrate: NCC(=O)O; assay: HPLC with fluorescence detection of monobromobimane-derivatized thiol peptide product, Michaelis-Menten fit; format: biochemical, Oryza sativa
Text: HPLC with fluorescence detection of monobromobimane-derivatized thiol peptide product, Michaelis-Menten fit on MBP-OsGS3

[2] = substrate: NCC(=O)O; assay: as above; format: biochemical, Oryza sativa; remark: listed apart in the source
Text: HPLC with fluorescence detection of monobromobimane-derivatized thiol peptide product, Michaelis-Menten fit on MBP-OsGS2

purified protein = substrate: N[C@@H](CO)C(=O)O; assay: purified protein
[3] = substrate: NCC(=O)O; assay: HPLC with fluorescence detection of monobromobimane-derivatized thiol peptide product, Michaelis-Menten fit; format: biochemical, Oryza sativa; remark: listed apart in the source
Text: HPLC with fluorescence detection of monobromobimane-derivatized thiol peptide product, Michaelis-Menten fit on MBP-OsGS1

B1: MBP-OsGS3 (Oryza sativa Japonica Group) (protein)
chain: MSAAAEGRPPAAAAAGEMVREATAWCALHGLVVGDRADPRSGTVPGVGLVHAPFSLLPTHLPESHWRQACELAPIFNELVDRVSLDGDFLQDSLSKTKQVDDFTSRLLEIHRKMMEINKEENIRLGLHRSDYMLDSETNSLLQIELNTISASFPGLGSLVSELHRTLIDQYGHLFCLDSKRVPGNEASSQFAKALARAWDEFNVDSAVIMMIVQPEERNMYDQYWLAKHLKESHGITTIRKTLSEVEAEGHVLPDGTLVIDGKTVSVVYFRAGYTPNDYPSEAEWAARLLLEQSSAVKCPSISYHLVGTKKIQQELARPNVLERFLENKEEITKIRKCFAGLWSLDDEEIVKSAIQKPELFVLKPQREGGGNNIYGIDVRETLIRLQKEGGDALAAYILMQRIFPKASLSNLVRGGVCHEALTISELGIYGAYLRNNDKVVMNEQSGYLMRTKVSSSDEGGVAAGFAVLDSLYLTDKAM
notes: MBP kept
- Km [1]: 408 ± 5 µM
- Vmax [1]: 6.6 µmol/min/mg

B2: MBP-OsGS2 (Oryza sativa Japonica Group) (protein)
chain: MAAAAARSGAHPPSFASSLGRCRVLPVVVVRRPGGAARPSPLLAPARCAAAVGTAAPKVEGGGRRSSEQGQLAVAPARLVDELVEEALVWSSQHGLVVGDKNHPRSGKAPGVGLLHAPFALLPMSFSKVYWDQAVELAPLFNELVDRVSLDGDFLQETLARTKEVDSFTGRLLDIHAKMMKLNKKEDVRLGLTRSDYMIDGATDQLLQVELNTISTSSNGLACGVCELHRNLIRQHERELGLDPESVVGNTAIAQHAEALAGAWAEFNNQSSVVLVVVQPEERYMYDQYWITVALREMYGVTTIRKTMAAIDAEGELRPDGTLTIDGLPVAVVYFRAGYTPNDYPSEAEWRARLLIECSSAIKCPSIAHHLVGTKKIQQELAKENVLERFLDNKADIEKVRKCFAGLWSLENDSIVMSAIESPELFVLKPQREGGGNNIYGDNLRETLISLKKDGSNELAAYILMQRIFPPASLCYLVRDGTCIRENAVSEFGIFGAYLRNKDRVIINDQCGYLMRTKAASLNEGGVVAGYAFLNSVFLT
notes: full-length ORF, MBP fusion (pMAL-c5X), expressed in E. coli NEB Express, amylose resin purified; MBP kept
- Km [2]: 19300 ± 1100 µM
- Vmax [2]: 0.459 µmol/min/mg
- Km (purified protein): 2640 ± 50 µM
- Vmax (purified protein): 0.524 µmol/min/mg

B3: MBP-OsGS1 (Oryza sativa Japonica Group) (protein)
chain: MSSYVTTPHHHHHHGCCSGSRRLQAPAPPARPRLVVAAAARHVALPPRRAVASRAMSAEAPLGVAPAAAEEEMAAVVDEMAEEAAVWCAVHGLVVGDRAEPRSGTIPGVGLVHAPFALLPTRFPASFWKQARELAPIFNDLVDRVSLDGEFLQDSLSRTRQVDDFTSRLLDIHAKMMEVNKEEDIRLGLHRSDYMLDSGTNSLLQIELNTISSSFPGLSSLVSELHRTLLNRHGKVLGLDSKRIPQNWAATQFAEALSMAWTEFNNKSAVIMMVVQPEERNMYDQYWLINHLKESHGVKTIRKTLAQVEAEGQVLPDGTLVVDGQTVSVVYFRAGYSPNDYPSEAEWRARLLMEQSSAIKCPSISYHLVGTKKIQQELAKPNILERFLNNKEDIAKLRKCFAGLWSLDNEEIVKTAIEKPDLFVLKPQREGGGNNIYGYDLRETLVRLQKEQGEALAAYILMQRIFPRASLTHLVQGGVCFEDLTISELGIFGAYLRNKDKVVLNNQCGYLMRTKVSSSNEGGVAAGFAVLDSILLTDEW
notes: as for B2
- Km [3]: 1280 ± 100 µM
- Vmax [3]: 0.759 µmol/min/mg
